Target: T1, FN14 on transiently transfected 293-F cells (human) (UniProt Q9NP84)
T1 sequence (looked up): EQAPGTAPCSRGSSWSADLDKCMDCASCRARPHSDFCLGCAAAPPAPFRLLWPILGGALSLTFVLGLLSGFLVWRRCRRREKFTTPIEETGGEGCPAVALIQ
Experiment: apparent affinity of the recombinant chimeric mAb, saturation binding

B1: anti-FN14 mAb FS24 (after 7 additional selections, recombinant chimeric mAb) (antibody, from another filing, V domains shown)
VH: AVTLDESGGGLQTPGGALSLVCKASGFTFSSYDMAWVRQEPGKGLEWVAGIDYDGSGRRYAPAVKGRATISRDNGQSTLRLQLNNLRAEDTGTYYCTKCGYTGGCDYEGGYIDAWGHGTEVIVSS
VL: ALTQPSSVSANPGETVKITCSGGGSSYYAGSYYYGWYQQKAPGSAPVTLIYYNNKRPSDIPSRFSGSLSGSTNTLTITGVRADDEAVYFCGSIDNSGAAFGAGTTLTVLG
  Kd: 0.26 nM
